# Measured values from article PMC11519390.
# B1: HA-tagged wildtype Drosophila CYRI [Drosophila] / GST-tagged constitutively active Rac1 [Drosophila] (parent)
# chain 1: MGKLLSLLSRDDSNCCAAKSYDVFLDFENAAPTETERAVYDEVERVLRESEVVLDEIQIYRGAGKEIREAIADPSPEVTAKAWAAVLPLVNKLKRCYEHSMELDKIVPKLLGQLVGGKLNPTQHLETQQALVKQLAEILEFVLKFDEYKMKTPAIQNDFSYYRRIVSRQRVDSTENMLVSTELANRMSLFYAHATPMLKVLSEATSKFVNDNADDVQNTTETLGTMAKVCLRMLENPKLLQQIEREDTKMLVLRVMVGLVILYDHVHPEGAFVRGAHVDVKGCVRLLQAQPAIKAEPLLNALRYTTKHLNGENTPKNIQRLLAA
# chain 2: not shown
# Variants of: B1
# Assay: GST pull-down, western blot quantification
# Settings: with GST-tagged constitutively active Rac1 Q61L [Drosophila]; Signals normalized to loaded input (1% of the starting lysate material); three independent experiments; read off a plot
row,Variant,response (% bound input)
1,chain 1 R163D R164D,0.015
